{"source": "the nanobody polyreactivity screen of Harvey et al. (2022)"}
{"assay": "yeast display, Sf9 membrane polyspecificity reagent, FACS + sequencing; frameworks hold sequencing errors", "outline": "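Galactose-induced (36–48 hours) yeast carrying a synthetic nanobody display library were exposed to 10% biotinylated, detergent-solubilized Sf9 membrane reagent at 4 °C for 1 hour. FACS followed streptavidin microbead enrichment, using low and high (top ~1%) gates for expression (anti-HA) and reagent binding (streptavidin). Colony PCR, MiSeq 2 × 250 sequencing and CDR-length filtering followed. Labels for polyreactivity reflect the gate of origin.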"}
{"sequence": "QVQLVESGGGLVQAGGSLRLICAASGNTFYRNAMGLYRQAPGKERELVAAIDYSAGSTYYADSVKWRFTISRDNAKYSVFFQMKSLNPEDTAVYYCAADARTSRGGRYYYWGQGTQVTVSS", "polyreactivity (PSR sort gate)": "low polyreactivity"}
{"sequence": "QVQLVESGGGLVQAGGSLRLICAASGRIFAYYAMGWYRHAPGKERELVAAISGSGRTYYADSVKGRFTISRDNAKYTVYLQMNSLKPEDTAVYYCNNVYSFYYTEGYDYWGQVTQVTVSS", "polyreactivity (PSR sort gate)": "high polyreactivity"}
{"sequence": "QVQLVESGGGLVQAGGSLRLICAASGRIFDGYAMGWYRQAPGKERELVAAISSDGGSTNYADSVKGRFTISRDNAKNTVYLQMNSLKPEDTAVYYCAESRLGEYLGYDYWGQGTQVTVSS", "polyreactivity (PSR sort gate)": "low polyreactivity"}
{"sequence": "QVQLVESGGGLVQAGGSLRLICAASGRIFGTNAKGWYRQAPGKERELVADITSGGSTNYADSVKGRFTISRDNAKNTVYLQMNSLKPEDTAVYYCAADVIGDLRWYRDEYWGQGTQVTVSS", "polyreactivity (PSR sort gate)": "low polyreactivity"}
{"sequence": "QVQLVESGGGLVQAGGSLRLICAASGRIFLTYAMGWYRQAPGKERELVAAISTSGTRTYYADSVKGRFTISRDTAKKTVYLQMNSLKPEDTAVYHCAREKYNYRTYEYWGQGTQVTVSS", "polyreactivity (PSR sort gate)": "high polyreactivity"}
{"sequence": "QVQLVESGGGLVQAGGSLRLICAASGRIFPSNAMGGSIQAPGKERELVAAINTGGSTYYADSVKGRFTISRDNAKNTVYLQMNSQKPEDTAVYYCAAARRYYYYWGQGTQVTVSS", "polyreactivity (PSR sort gate)": "high polyreactivity"}
{"sequence": "QVQLVESGGGLVQAGGSLRLICAASGRIFRYYAMGWSRQAPGKERELVAAIRSASSTYYADSVNGRFTISRDNAKITVYLKMNSLIPEDTSVYYCADRLYGVYKRRYYYWGQGTQVTVSS", "polyreactivity (PSR sort gate)": "high polyreactivity"}
{"sequence": "QVQLVESGGGLVQAGGSLRLICAASGRIFVPYVMGWYRQAPGKERELVASISDSDTSTYYADSVKGRFTISRDNAKNTVYLQMNSVKPEDTAVYYCNVDYWGQGTQVTVSS", "polyreactivity (PSR sort gate)": "low polyreactivity"}
{"sequence": "QVQLVESGGGLVQAGGSLRLICAASGRIFVYYAMGWYRQAPGKERELVAAISSGGSTYYADSVKGRFTISRDNAKNTVYLQMNSLKPEDTAVYYCAADPQRGRRIGYYWGQGTQVTVSS", "polyreactivity (PSR sort gate)": "low polyreactivity"}
{"sequence": "QVQLVESGGGLVQAGGSLRLICAASGRILDNYAMGWYRQAPGKERELVAAISASGASTYYADSVKGRFTISRDNAKNTVYLQMNSLKPEDTAVYYCNAAARYRWQYDYSLYEYGHWGQGTQVTVSS", "polyreactivity (PSR sort gate)": "high polyreactivity"}
{"sequence": "QVQLVESGGGLVQAGGSLRLICAASGRTFAGNAMGWYRQAPGKERELVAAISQGGGYTYYADSVKGRFTISRDNAKNNVYLQMNSLKPEDTAVYYCAAEIPRRWASFATLWYDYLGQGTQVTVSS", "polyreactivity (PSR sort gate)": "low polyreactivity"}
{"sequence": "QVQLVESGGGLVQAGGSLRLICAASGRTFGTHTMGWYRQAPGKERELVAAISSRGGTTYYADSVKGRFTISRDNAKNTVYLQMNSLKPEDTAVYYSNTGTRAIQRDGFEYWGQGTQVTVSS", "polyreactivity (PSR sort gate)": "low polyreactivity"}
{"sequence": "QVQLVESGGGLVQAGGSLRLICAASGRTFKRYVIGWYRQAPRKERELVATITRGGSTTYADSVKGRFTISRDNAKNTVFLQMNSLKPEDTAVYYCIADLYQVYLSDYWGQGTQVTVSS", "polyreactivity (PSR sort gate)": "high polyreactivity"}
{"sequence": "QVQLVESGGGLVQAGGSLRLICAASGRTFRYNAMGWYRQAPGKERELVASITSGGSTNYADSVKGRFTISRDHAKNTVYLQMNSLKPEDTAVYYCAKDHYYRYEDGDYWGQGTQVTVSS", "polyreactivity (PSR sort gate)": "low polyreactivity"}
{"sequence": "QVQLVESGGGLVQAGGSLRLICAASGRTFSFYARVWYRQAPGKETEFVAAITGSGGSTYYADSVKGRFTISRDNAKNTVYLKMNSLKPEDTAVYYCAKRSAWHTYRYGYWGQGTQVTVSS", "polyreactivity (PSR sort gate)": "high polyreactivity"}
{"sequence": "QVQLVESGGGLVQAGGSLRLICAASGRTFSGNTMGWYRQAPGKERELVAAITGRGGSTYYADSVKGRFTISRDNAKNTVYLQMNSLKPEDTAVYYCAALRYTFAGRFDYWGHGTQVTVSS", "polyreactivity (PSR sort gate)": "high polyreactivity"}
{"sequence": "QVQLVESGGGLVQAGGSLRLICAASGRTFSNAMGWYRQAPGKERELVADISSGGSPNYADSVKGRFTISRDNAKNTVYLEINSLKPEDTAVYYCAAFSGCLYGYSDDYWGQGTQVTVSS", "polyreactivity (PSR sort gate)": "low polyreactivity"}
